Measured values published in patent US20050250700A1 (BRACCO SUISSE, published 2005).
Blank lines part the entries; values can stand above or below the binder they belong to. Bridge positions count the residues as written; N and C are the ends. Side chains are listed from the residue outwards. Ends that are not written are not given here. I, II: the chains in the order shown. * marks the point of attachment. Biotin = O=C1N[C@H]2[C@H](CS[C@H]2CCCCC(=O)*)N1; AEEA = NCCOCCOCC(=O)O

Experiments:
[1] = target: T1, KDR (VEGFR-2), full-length receptor on cells (human, UniProt P35968 20-1356); test: 3.33 nM peptide mix/neutravidin-HRP complex on 293H cells
T1 construct: whole, on cells; the assay field tells which cells; also called KDR-expressing cells
Experimental: Peptide stock solutions were stored at −20C, whereas the Neutravidin HRP stock solution was stored at −80C. […] Fresh peptide/neutravidin HRP complexes were prepared for each experiment.
(§1) After incubation at room temperature, plates were transferred to 4C for another half-hour incubation. Subsequently, cells were washed five times with ice-cold M199 media and once with ice-cold PBS (in that order). After the final wash, 100 μL of ice cold TMB solution (KPL, Gaithersburg, Md.) was added to each well and each plate was incubated for 30 minutes at 37C in an air incubator.

[2] = target: T2, chimeric fusion of Ig Fc region with human KDR (human, UniProt P35968 20-764); test: BIAcore steady state, KDAV, KDR-Fc 6000 RU
T2 construct: bought, carrier-free; also called KDR-Fc; KDR Fc fusion; not shown: Ig Fc region
Experimental: (§2) The heterodimer was tested for binding to KDR-Fc using Biacore, and an affinity constant was determined as follows.
(§3) All samples were injected in duplicate. […] Following a 10 minute dissociation, any remaining peptide was stripped from the KDR surface with a quickinject of 50 mM NaOH+1 M NaCl for 12 s at 75 μL/min. Sensorgrams were analyzed using BIAevaluation software 3.1 and a hyperbolic double rectangular regression equation in SigmaPlot 6.0.

[3] = target: T2, chimeric fusion of Ig Fc region with …; test: BIAcore steady state, KDAV, KDR-Fc 3000 RU
Experimental: as §2, §3

[4] = target: T1, KDR (VEGFR-2), full-length receptor on …; test: cell-based or functional assay
[5] = target: T2, chimeric fusion of Ig Fc region with …; test: BIAcore steady state, KD1, KDR-Fc 6000 RU
Experimental: as §2, §3

[6] = target: T2, chimeric fusion of Ig Fc region with …; test: BIAcore steady state, KD1, KDR-Fc 1600 RU
[7] = target: T2, chimeric fusion of Ig Fc region with …; test: BIAcore steady state at the higher immobilization densities
Experimental: as §3

[8] = target: T2, chimeric fusion of Ig Fc region with …; test: BIAcore steady state, KD1, KDR-Fc 3000 RU
Experimental: as §2, §3

[9] = target: T2, chimeric fusion of Ig Fc region with …; test: BIAcore steady state, KDAV, KDR-Fc 1600 RU
Experimental: as §2, §3

[10] = target: T2, chimeric fusion of Ig Fc region with …; test: SPR; form of KDR not stated there
[11] = target: T1, KDR (VEGFR-2), full-length receptor on …; test: competitor 125I-VEGF (300 pM) on KDR-transfected 293H cells; peptide 0.3 µM
Experimental: (§4) Preparation of 30 μM and 0.3 μM peptide solution in 300 pM ¹²⁵I-labeled VEGF: For each 96 well plate, 10 mL of 300 pM ¹²⁵I-labeled VEGF in M199 medium was prepared at 4° C. Each peptide solution (3 mM, prepared as described above) was diluted 1:100 and 1:10000 in 300 μl of M199 media with 300 pM ¹²⁵I-labeled VEGF to prepare 30 μM and 0.3 μM peptide solutions containing 300 pM of ¹²⁵I-labeled VEGF. Once prepared, the solutions were kept on ice until ready to use. The dilution of peptides in M199 media containing 300 pM ¹²⁵I-labeled VEGF was done freshly for each experiment.
(§5) To calculate the specific binding to KDR, the binding of ¹²⁵I-labeled VEGF to mock-transfected cells was subtracted from KDR-transfected cells.

[12] = target: T1, KDR (VEGFR-2), full-length receptor on …; test: competitor 125I-VEGF (300 pM) on KDR-transfected 293H cells; peptide 30 µM
Experimental: as §4, §5

[13] = target: T1, KDR (VEGFR-2), full-length receptor on …; test: saturation binding of peptide/neutravidin-HRP complex, KDR- minus mock-transfected 293H cells
Experimental: as §1, with “4° C.” for “4C”, “5” for “five”, “μl” for “μL”, “cat. # 50-76-00)” for “Gaithersburg, Md.)”, “37° C.” for “37C”
Therefore, absorbance on the Y-axis of FIG. 1 is differential absorbance (KDR minus mock) and not the absolute absorbance.

T1 sequence (P35968 20-1356): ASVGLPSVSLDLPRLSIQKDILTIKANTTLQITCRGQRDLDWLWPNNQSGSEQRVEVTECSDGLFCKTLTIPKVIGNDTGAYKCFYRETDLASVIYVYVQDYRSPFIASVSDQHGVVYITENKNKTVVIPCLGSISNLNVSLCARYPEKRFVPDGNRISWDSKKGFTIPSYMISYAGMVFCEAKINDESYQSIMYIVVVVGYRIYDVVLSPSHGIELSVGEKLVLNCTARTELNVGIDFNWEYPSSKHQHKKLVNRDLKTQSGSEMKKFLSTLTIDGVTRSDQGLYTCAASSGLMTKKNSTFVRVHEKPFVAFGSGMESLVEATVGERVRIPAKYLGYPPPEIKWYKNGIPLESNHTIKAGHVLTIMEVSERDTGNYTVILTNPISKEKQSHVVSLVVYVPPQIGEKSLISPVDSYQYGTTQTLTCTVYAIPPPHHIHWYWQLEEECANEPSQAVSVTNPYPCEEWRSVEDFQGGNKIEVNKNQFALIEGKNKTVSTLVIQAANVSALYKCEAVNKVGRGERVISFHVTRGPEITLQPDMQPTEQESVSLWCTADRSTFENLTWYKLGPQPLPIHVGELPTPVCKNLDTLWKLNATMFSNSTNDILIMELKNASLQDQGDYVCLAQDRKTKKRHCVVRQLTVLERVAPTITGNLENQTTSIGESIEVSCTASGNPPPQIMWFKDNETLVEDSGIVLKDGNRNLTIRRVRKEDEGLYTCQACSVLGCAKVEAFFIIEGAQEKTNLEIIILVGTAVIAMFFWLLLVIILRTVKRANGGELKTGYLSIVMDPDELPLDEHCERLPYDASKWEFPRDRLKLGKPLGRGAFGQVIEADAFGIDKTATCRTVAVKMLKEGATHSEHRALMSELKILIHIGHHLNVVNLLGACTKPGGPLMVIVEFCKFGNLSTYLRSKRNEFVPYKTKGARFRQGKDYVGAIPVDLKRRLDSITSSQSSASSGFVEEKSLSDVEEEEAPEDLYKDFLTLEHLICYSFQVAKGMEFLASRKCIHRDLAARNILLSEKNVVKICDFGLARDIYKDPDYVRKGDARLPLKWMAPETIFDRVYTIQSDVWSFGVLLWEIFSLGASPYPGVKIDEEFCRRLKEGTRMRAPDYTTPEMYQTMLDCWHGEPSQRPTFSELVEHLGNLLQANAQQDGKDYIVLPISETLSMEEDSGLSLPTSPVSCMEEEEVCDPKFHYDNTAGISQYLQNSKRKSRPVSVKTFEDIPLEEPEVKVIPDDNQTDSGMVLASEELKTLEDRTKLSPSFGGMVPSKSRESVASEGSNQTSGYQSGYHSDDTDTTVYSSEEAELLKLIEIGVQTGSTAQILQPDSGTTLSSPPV
T2 sequence (P35968 20-764, change not shown): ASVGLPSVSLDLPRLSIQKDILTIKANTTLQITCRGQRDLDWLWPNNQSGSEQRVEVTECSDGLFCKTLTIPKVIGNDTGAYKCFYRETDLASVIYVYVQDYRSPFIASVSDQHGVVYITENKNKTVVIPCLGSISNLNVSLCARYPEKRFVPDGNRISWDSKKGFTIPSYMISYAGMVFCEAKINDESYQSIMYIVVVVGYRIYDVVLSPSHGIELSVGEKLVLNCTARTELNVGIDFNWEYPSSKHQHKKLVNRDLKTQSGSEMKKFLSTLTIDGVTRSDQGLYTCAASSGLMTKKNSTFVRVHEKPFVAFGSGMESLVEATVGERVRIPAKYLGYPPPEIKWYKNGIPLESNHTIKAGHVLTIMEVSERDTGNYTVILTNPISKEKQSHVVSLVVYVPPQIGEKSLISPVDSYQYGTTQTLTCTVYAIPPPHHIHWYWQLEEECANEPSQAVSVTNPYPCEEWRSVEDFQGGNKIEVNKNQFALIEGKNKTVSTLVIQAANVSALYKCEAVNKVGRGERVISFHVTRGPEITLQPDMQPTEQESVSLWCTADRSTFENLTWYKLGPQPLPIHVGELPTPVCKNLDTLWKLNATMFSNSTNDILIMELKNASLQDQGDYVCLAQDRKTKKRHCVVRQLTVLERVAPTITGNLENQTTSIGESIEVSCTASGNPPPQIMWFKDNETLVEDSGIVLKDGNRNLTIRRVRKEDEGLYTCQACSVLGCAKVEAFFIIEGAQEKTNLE

B2: dimer 6 (D6) (peptide)
peptide 1: GDSRVCWEDSWGGEVCFRYDPGGGK
peptide 2: AGPTWCEDDWYYCWLFGTGGGK
modifications: disulfide I:6-I:16, II:6-II:13 (inferred); also: heterodimer joined by glutaric acid linkage
Kd [2]: 0.000662 µM | Kd [3]: 0.000665 µM | IC50, VEGF-induced migration of HUVECs [4]: ~0.0125 µM | IC50, VEGF-induced migration of HUVECs, with 100 nM Adjunct A [4]: ~0.0025 µM | Kd [5]: 0.017 µM | Kd [6]: 0.046 µM | Kd [7]: ~0.0006 µM | Kd [8]: 0.0255 µM | Kd [9]: 0.0015 µM

Binder: Ac-GDSRVCWEDSWGGEVCFRYDP (disulfide 6-16 (inferred)) [acetylated SEQ ID NO:294 without the modified C-terminus (SEQ ID NO:374)]
% inhibition of 125I-labeled VEGF binding [11]: 52.3% | % inhibition of 125I-labeled VEGF binding [12]: 96.3%

B4: tetrameric complex of biotinylated SEQ ID NO:294 (JJ spacer) with neutravidin-HRP (other)
peptide: Ac-GDSRVCWEDSWGGEVCFRYDPGGGK([AEEA-AEEA-Biotin])-NH2
modifications: disulfide 6-16 (inferred); also: tetrameric complex with neutravidin-HRP
notes: peptides held on neutravidin-HRP (Pierce 31001)
Kd [13]: 0.01 µM

B5: tetrameric neutravidin-HRP complex of SEQ ID NO:294 and SEQ ID NO:264, ratio 1:3 (other)
peptide 1: Ac-GDSRVCWEDSWGGEVCFRYDPGGGK([AEEA-AEEA-Biotin])-NH2
peptide 2: Ac-AGPKWCEEDWYYCMITGTGGGK([AEEA-AEEA-Biotin])-NH2
modifications: disulfide I:6-I:16, II:6-II:13 (inferred); also: tetrameric neutravidin-HRP complex, chain ratio 1:3
notes: nominal composition
binding result [1]: binds

Continued, values first:

binding result [1]: binds
B1: tetrameric neutravidin-HRP complex of SEQ ID NO:294 and SEQ ID NO:264, ratio 2:2 (other)
peptide 1: Ac-GDSRVCWEDSWGGEVCFRYDPGGGK([AEEA-AEEA-Biotin])-NH2
peptide 2: Ac-AGPKWCEEDWYYCMITGTGGGK([AEEA-AEEA-Biotin])-NH2
modifications: disulfide I:6-I:16, II:6-II:13 (inferred); also: tetrameric neutravidin-HRP complex, chain ratio 2:2
notes: nominal composition

Kd [10]: 0.011 µM
B3: dimer 28 (D28) (peptide)
peptide 1: AQEPEGYAYWEVITLYHEEDGDGGK
peptide 2: AQAFPRFGGDDYWIQQYLRYTDGGK
modifications: also: tail-to-tail heterodimer, linkage not given here

IC50, receptor activation assay [4]: 1 µM
Binder: VCWEDSWGGEVCFRYDPGGGK (disulfide 2-12 (inferred)) [SEQ ID NO:337, monomeric free peptide]

binding result [1]: binds
B6: tetrameric neutravidin-HRP complex of SEQ ID NO:294 and SEQ ID NO:264, ratio 3:1 (other)
peptide 1: Ac-GDSRVCWEDSWGGEVCFRYDPGGGK([AEEA-AEEA-Biotin])-NH2
peptide 2: Ac-AGPKWCEEDWYYCMITGTGGGK([AEEA-AEEA-Biotin])-NH2
modifications: disulfide I:6-I:16, II:6-II:13 (inferred); also: tetrameric neutravidin-HRP complex, chain ratio 3:1
notes: nominal composition
